Measurements taken from patent US9260500B2, “Peptide and use thereof” (Takeda Pharmaceutical Company Limited, priority 2009, dated 2016).
Starred links: 1 amine or outer side, 2 acyl side, 3 side chain; linkers in the order of their positions; H or OH if unused. Non-standard residues stand in square brackets, D forms with d. Primed or numbered codes have the meaning given here. *: point of attachment. Ser(Me)″ = O-methylserine, COC[C@H](N[*:1])C(=O)[*:2]; Phe(4-NH2) = Nc1ccc(C[C@H](N)C(=O)O)cc1; β‑HOAla = beta-homoalanine, D or L form; 1Nal = N[C@@H](Cc1cccc2ccccc12)C(=O)O; Cyclohexanecarbonyl = O=C(C1CCCCC1)*; Arg(Me) = CNC(=N)NCCC[C@H](N)C(=O)O; Ala(cPr) = N[C@@H](CC1CC1)C(=O)O; 4Pal = N[C@@H](Cc1ccncc1)C(=O)O; Cha = N[C@@H](CC1CCCCC1)C(=O)O; Nva = CCC[C@H](N)C(=O)O; Dap = NC[C@H](N)C(=O)O; Aib = CC(C)(N)C(=O)O; Bz = O=C(c1ccccc1)*; βAla = NCCC(=O)O

How the values were obtained:
[1] = target: T1, human Y2 receptor (Homo sapiens, UniProt P49146); assay: Receptor Binding Assay (RBA) for Human Y2, [125I]-PYY displacement on hY2R/CHO membrane fraction; conditions: IC50 of test compound/IC50 of PYY(3-36) (PYY(3-36) taken as 1)
T1 construct: expressed in transfected cells; membrane fraction
T1 sequence (P49146 1-381): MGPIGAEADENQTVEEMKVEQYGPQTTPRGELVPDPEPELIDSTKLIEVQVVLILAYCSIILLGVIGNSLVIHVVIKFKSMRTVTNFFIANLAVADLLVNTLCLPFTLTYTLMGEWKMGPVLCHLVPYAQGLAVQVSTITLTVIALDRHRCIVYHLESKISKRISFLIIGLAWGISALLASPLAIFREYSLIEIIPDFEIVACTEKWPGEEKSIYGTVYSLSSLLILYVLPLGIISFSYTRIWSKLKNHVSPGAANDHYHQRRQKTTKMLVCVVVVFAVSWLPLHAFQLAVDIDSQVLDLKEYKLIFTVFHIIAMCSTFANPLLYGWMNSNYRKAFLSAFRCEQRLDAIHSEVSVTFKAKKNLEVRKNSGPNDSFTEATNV
Method in brief: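 Read-out is [125I]-PYY displacement from membranes of CHO/dhfr− cells stably transfected with human Y2R. Membranes were obtained by disrupting cells in a buffer of 10 mM NaHCO3, 5 mM EDTA and protease inhibitors.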

[2] = target: T1, human Y2 receptor; assay: Human Y2 Receptor G Protein Binding Assay (GBA), [35S]GTPγS; assay type: biochemical; conditions: EC50 of test compound/EC50 of PYY(3-36) (PYY3-36 taken as 1), hY2R/CHO membrane fraction
Method in brief: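 Agonism measured as [35S]GTPγS binding, read by GF/C filtration and scintillation counting after 120 min at room temperature, using human Y2 membranes at 1 μg protein/mL in pH 7.4 Tris/MgCl2/NaCl/GDP buffer. Compound serially diluted 100 μM–1 nM; EC50 normalized to PYY(3-36) (ratio = compound/PYY).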

Substance | RBA IC50 Ratio [1] | GBA EC50 Ratio [2]
Benzoyl-[Asn26, Cha27,28,36, Aib31]-PYY(25-36) (Bz-RN[Cha][Cha]NL[Aib]TRQR[Cha]-NH2; SMILES CC(C)C[C@H](NC(=O)[C@H](CC(N)=O)NC(=O)[C@H](CC1CCCCC1)NC(=O)[C@H](CC1CCCCC1)NC(=O)[C@H](CC(N)=O)NC(=O)[C@H](CCCNC(=N)N)NC(=O)c1ccccc1)C(=O)NC(C)(C)C(=O)N[C@H](C(=O)N[C@@H](CCCNC(=N)N)C(=O)N[C@@H](CCC(N)=O)C(=O)N[C@@H](CCCNC(=N)N)C(=O)N[C@@H](CC1CCCCC1)C(N)=O)[C@@H](C)O) [compound No. 99] | 19 | 21
Benzoyl-[Cha27,28,36, Aib31]-PYY(25-36) (Bz-RH[Cha][Cha]NL[Aib]TRQR[Cha]-NH2; SMILES CC(C)C[C@H](NC(=O)[C@H](CC(N)=O)NC(=O)[C@H](CC1CCCCC1)NC(=O)[C@H](CC1CCCCC1)NC(=O)[C@H](Cc1c[nH]cn1)NC(=O)[C@H](CCCNC(=N)N)NC(=O)c1ccccc1)C(=O)NC(C)(C)C(=O)N[C@H](C(=O)N[C@@H](CCCNC(=N)N)C(=O)N[C@@H](CCC(N)=O)C(=O)N[C@@H](CCCNC(=N)N)C(=O)N[C@@H](CC1CCCCC1)C(N)=O)[C@@H](C)O) [compound No. 64] | 28 | 18
Benzoyl-[Cha27,36, Ile28,31, Phe(4NH2)30]-PYY(25-36) (Bz-RH[Cha]IN[Phe(4-NH2)]ITRQR[Cha]-NH2; SMILES CC[C@H](C)[C@H](NC(=O)[C@H](CC1CCCCC1)NC(=O)[C@H](Cc1c[nH]cn1)NC(=O)[C@H](CCCNC(=N)N)NC(=O)c1ccccc1)C(=O)N[C@@H](CC(N)=O)C(=O)N[C@@H](Cc1ccc(N)cc1)C(=O)N[C@H](C(=O)N[C@H](C(=O)N[C@@H](CCCNC(=N)N)C(=O)N[C@@H](CCC(N)=O)C(=O)N[C@@H](CCCNC(=N)N)C(=O)N[C@@H](CC1CCCCC1)C(N)=O)[C@@H](C)O)[C@@H](C)CC) [compound No. 73] | 12 | 6.6
Benzoyl-[Cha27,36, Ile28, Arg(Me)31]-PYY(25-36) (Bz-RH[Cha]INL[Arg(Me)]TRQR[Cha]-NH2) [compound No. 70] | 18 | 15
Benzoyl-[Cha27,36, Ile28, Dap31]-PYY(25-36) (Bz-RH[Cha]INL[Dap]TRQR[Cha]-NH2; SMILES CC[C@H](C)[C@H](NC(=O)[C@H](CC1CCCCC1)NC(=O)[C@H](Cc1c[nH]cn1)NC(=O)[C@H](CCCNC(=N)N)NC(=O)c1ccccc1)C(=O)N[C@@H](CC(N)=O)C(=O)N[C@@H](CC(C)C)C(=O)N[C@@H](CN)C(=O)N[C@H](C(=O)N[C@@H](CCCNC(=N)N)C(=O)N[C@@H](CCC(N)=O)C(=O)N[C@@H](CCCNC(=N)N)C(=O)N[C@@H](CC1CCCCC1)C(N)=O)[C@@H](C)O) [compound No. 69] | 37 | 28
Benzoyl-[Cha27,36, Ile28, Phe(4NH2)31]-PYY(25-36) (Bz-RH[Cha]INL[Phe(4-NH2)]TRQR[Cha]-NH2; SMILES CC[C@H](C)[C@H](NC(=O)[C@H](CC1CCCCC1)NC(=O)[C@H](Cc1c[nH]cn1)NC(=O)[C@H](CCCNC(=N)N)NC(=O)c1ccccc1)C(=O)N[C@@H](CC(N)=O)C(=O)N[C@@H](CC(C)C)C(=O)N[C@@H](Cc1ccc(N)cc1)C(=O)N[C@H](C(=O)N[C@@H](CCCNC(=N)N)C(=O)N[C@@H](CCC(N)=O)C(=O)N[C@@H](CCCNC(=N)N)C(=O)N[C@@H](CC1CCCCC1)C(N)=O)[C@@H](C)O) [compound No. 72] | 5.0 | 5.4
Benzoyl-[Cha27,36, Ile28, Pya(4)31]-PYY(25-36) (Bz-RH[Cha]INL[4Pal]TRQR[Cha]-NH2; SMILES CC[C@H](C)[C@H](NC(=O)[C@H](CC1CCCCC1)NC(=O)[C@H](Cc1c[nH]cn1)NC(=O)[C@H](CCCNC(=N)N)NC(=O)c1ccccc1)C(=O)N[C@@H](CC(N)=O)C(=O)N[C@@H](CC(C)C)C(=O)N[C@@H](Cc1ccncc1)C(=O)N[C@H](C(=O)N[C@@H](CCCNC(=N)N)C(=O)N[C@@H](CCC(N)=O)C(=O)N[C@@H](CCCNC(=N)N)C(=O)N[C@@H](CC1CCCCC1)C(N)=O)[C@@H](C)O) [compound No. 71] | 7.6 | 8.5
Cyclohexanecarbonyl-[Cha27,36, Ala(cPr)28, Aib31]-PYY(25-36) (Cyclohexanecarbonyl-RH[Cha][Ala(cPr)]NL[Aib]TRQR[Cha]-NH2; SMILES CC(C)C[C@H](NC(=O)[C@H](CC(N)=O)NC(=O)[C@H](CC1CC1)NC(=O)[C@H](CC1CCCCC1)NC(=O)[C@H](Cc1c[nH]cn1)NC(=O)[C@H](CCCNC(=N)N)NC(=O)C1CCCCC1)C(=O)NC(C)(C)C(=O)N[C@H](C(=O)N[C@@H](CCCNC(=N)N)C(=O)N[C@@H](CCC(N)=O)C(=O)N[C@@H](CCCNC(=N)N)C(=O)N[C@@H](CC1CCCCC1)C(N)=O)[C@@H](C)O) [compound No. 78] | 15 | 23

More lines, now with the values ahead:

RBA IC50 Ratio [1] | GBA EC50 Ratio [2] | Substance
0.85 | 1.9 | Ac-[β-HOAla24, Pya(4)26, Cha27,36, Aib28,31, Lys30]-PYY(23-36) [compound No. 245] (Ac-S[β‑HOAla]R[4Pal][Cha][Aib]NK[Aib]TRQR[Cha]-NH2; also: β-HOAla at position 2: D or L form not settled)
1.9 | 1.1 | Ac-[βAla24, Pya(4)26, Cha27,36, Aib28,31, Lys30]-PYY(23-36) (Ac-S[βAla]R[4Pal][Cha][Aib]NK[Aib]TRQR[Cha]-NH2; SMILES CC(=O)N[C@@H](CO)C(=O)NCCC(=O)N[C@@H](CCCNC(=N)N)C(=O)N[C@@H](Cc1ccncc1)C(=O)N[C@@H](CC1CCCCC1)C(=O)NC(C)(C)C(=O)N[C@@H](CC(N)=O)C(=O)N[C@@H](CCCCN)C(=O)NC(C)(C)C(=O)N[C@H](C(=O)N[C@@H](CCCNC(=N)N)C(=O)N[C@@H](CCC(N)=O)C(=O)N[C@@H](CCCNC(=N)N)C(=O)N[C@@H](CC1CCCCC1)C(N)=O)[C@@H](C)O) [compound No. 222]
34 | 25 | Benzoyl-[Cha27,36, Nal(1)28, Aib31]-PYY(25-36) (Bz-RH[Cha][1Nal]NL[Aib]TRQR[Cha]-NH2; SMILES CC(C)C[C@H](NC(=O)[C@H](CC(N)=O)NC(=O)[C@H](Cc1cccc2ccccc12)NC(=O)[C@H](CC1CCCCC1)NC(=O)[C@H](Cc1c[nH]cn1)NC(=O)[C@H](CCCNC(=N)N)NC(=O)c1ccccc1)C(=O)NC(C)(C)C(=O)N[C@H](C(=O)N[C@@H](CCCNC(=N)N)C(=O)N[C@@H](CCC(N)=O)C(=O)N[C@@H](CCCNC(=N)N)C(=O)N[C@@H](CC1CCCCC1)C(N)=O)[C@@H](C)O) [compound No. 63]
5.6 | 4.3 | Benzoyl-[His27, Cha28,36, Aib31]-PYY(25-36) (Bz-RHH[Cha]NL[Aib]TRQR[Cha]-NH2; SMILES CC(C)C[C@H](NC(=O)[C@H](CC(N)=O)NC(=O)[C@H](CC1CCCCC1)NC(=O)[C@H](Cc1c[nH]cn1)NC(=O)[C@H](Cc1c[nH]cn1)NC(=O)[C@H](CCCNC(=N)N)NC(=O)c1ccccc1)C(=O)NC(C)(C)C(=O)N[C@H](C(=O)N[C@@H](CCCNC(=N)N)C(=O)N[C@@H](CCC(N)=O)C(=O)N[C@@H](CCCNC(=N)N)C(=O)N[C@@H](CC1CCCCC1)C(N)=O)[C@@H](C)O) [compound No. 104]
13 | 8.6 | Benzoyl-[Nva27, Cha28,36, Aib31]-PYY(25-36) (Bz-RH[Nva][Cha]NL[Aib]TRQR[Cha]-NH2; SMILES CCC[C@H](NC(=O)[C@H](Cc1c[nH]cn1)NC(=O)[C@H](CCCNC(=N)N)NC(=O)c1ccccc1)C(=O)N[C@@H](CC1CCCCC1)C(=O)N[C@@H](CC(N)=O)C(=O)N[C@@H](CC(C)C)C(=O)NC(C)(C)C(=O)N[C@H](C(=O)N[C@@H](CCCNC(=N)N)C(=O)N[C@@H](CCC(N)=O)C(=O)N[C@@H](CCCNC(=N)N)C(=O)N[C@@H](CC1CCCCC1)C(N)=O)[C@@H](C)O) [compound No. 103]
13 | 6.0 | Benzoyl-[Ser26, Cha27,28,36, Aib31]-PYY(25-36) (Bz-RS[Cha][Cha]NL[Aib]TRQR[Cha]-NH2; SMILES CC(C)C[C@H](NC(=O)[C@H](CC(N)=O)NC(=O)[C@H](CC1CCCCC1)NC(=O)[C@H](CC1CCCCC1)NC(=O)[C@H](CO)NC(=O)[C@H](CCCNC(=N)N)NC(=O)c1ccccc1)C(=O)NC(C)(C)C(=O)N[C@H](C(=O)N[C@@H](CCCNC(=N)N)C(=O)N[C@@H](CCC(N)=O)C(=O)N[C@@H](CCCNC(=N)N)C(=O)N[C@@H](CC1CCCCC1)C(N)=O)[C@@H](C)O) [compound No. 97]
18 | 8.7 | Benzoyl-[Ser(Me)26, Cha27,28,36, Aib31]-PYY(25-36) (Bz-R[Ser(Me)″][Cha][Cha]NL[Aib]TRQR[Cha]-NH2; SMILES COC[C@H](NC(=O)[C@H](CCCNC(=N)N)NC(=O)c1ccccc1)C(=O)N[C@@H](CC1CCCCC1)C(=O)N[C@@H](CC1CCCCC1)C(=O)N[C@@H](CC(N)=O)C(=O)N[C@@H](CC(C)C)C(=O)NC(C)(C)C(=O)N[C@H](C(=O)N[C@@H](CCCNC(=N)N)C(=O)N[C@@H](CCC(N)=O)C(=O)N[C@@H](CCCNC(=N)N)C(=O)N[C@@H](CC1CCCCC1)C(N)=O)[C@@H](C)O) [compound No. 98]
